# Data from PMC8298264, “Function of cofactor Akirin2 in the regulation of gene expression in model human neutrophil-like HL60 cells” (Bioscience Reports, 2021).
# B1: sp¦Q86UP2¦KTN1_HUMAN (protein, UniProt Q86UP2 1-1357, looked up)
# Kinectin: MEFYESAYFIVLIPSIVITVIFLFFWLFMKETLYDEVLAKQKREQKLIPTKTDKKKAEKKKNKKKEIQNGNLHESDSESVPRDFKLSDALAVEDDQVAPVPLNVVETSSSVRERKKKEKKQKPVLEEQVIKESDASKIPGKKVEPVPVTKQPTPPSEAAASKKKPGQKKSKNGSDDQDKKVETLMVPSKRQEALPLHQETKQESGSGKKKASSKKQKTENVFVDEPLIHATTYIPLMDNADSSPVVDKREVIDLLKPDQVEGIQKSGTKKLKTETDKENAEVKFKDFLLSLKTMMFSEDEALCVVDLLKEKSGVIQDALKKSSKGELTTLIHQLQEKDKLLAAVKEDAAATKDRCKQLTQEMMTEKERSNVVITRMKDRIGTLEKEHNVFQNKIHVSYQETQQMQMKFQQVREQMEAEIAHLKQENGILRDAVSNTTNQLESKQSAELNKLRQDYARLVNELTEKTGKLQQEEVQKKNAEQAATQLKVQLQEAERRWEEVQSYIRKRTAEHEAAQQDLQSKFVAKENEVQSLHSKLTDTLVSKQQLEQRLMQLMESEQKRVNKEESLQMQVQDILEQNEALKAQIQQFHSQIAAQTSASVLAEELHKVIAEKDKQIKQTEDSLASERDRLTSKEEELKDIQNMNFLLKAEVQKLQALANEQAAAAHELEKMQQSVYVKDDKIRLLEEQLQHEISNKMEEFKILNDQNKALKSEVQKLQTLVSEQPNKDVVEQMEKCIQEKDEKLKTVEELLETGLIQVATKEEELNAIRTENSSLTKEVQDLKAKQNDQVSFASLVEELKKVIHEKDGKIKSVEELLEAELLKVANKEKTVQDLKQEIKALKEEIGNVQLEKAQQLSITSKVQELQNLLKGKEEQMNTMKAVLEEKEKDLANTGKWLQDLQEENESLKAHVQEVAQHNLKEASSASQFEELEIVLKEKENELKRLEAMLKERESDLSSKTQLLQDVQDENKLFKSQIEQLKQQNYQQASSFPPHEELLKVISEREKEISGLWNELDSLKDAVEHQRKKNNDLREKNWEAMEALASTEKMLQDKVNKTSKERQQQVEAVELEAKEVLKKLFPKVSVPSNLSYGEWLHGFEKKAKECMAGTSGSEEVKVLEHKLKEADEMHTLLQLECEKYKSVLAETEGILQKLQRSVEQEENKWKVKVDESHKTIKQMQSSFTSSEQELERLRSENKDIENLRREREHLEMELEKAEMERSTYVTEVRELKDLLTELQKKLDDSYSEAVRQNEELNLLKAQLNETLTKLRTEQNERQKVAGDLHKAQQSLELIQSKIVKAAGDTTVIENSDVSPETESSEKETMSVSLNQTVTQLQQLLQAVNQQLTKEKEHYQVLE
# B2: RNF181 (protein, UniProt Q9P0P0 1-153, looked up)
# E3 ubiquitin-protein ligase …: MASYFDEHDCEPSDPEQETRTNMLLELARSLFNRMDFEDLGLVVDWDHHLPPPAAKTVVENLPRTVIRGSQAELKCPVCLLEFEEEETAIEMPCHHLFHSSCILPWLSKTNSCPLCRYELPTDDDTYEEHRRDKARKQQQQHRLENLHGAMYT
# B3: SPG21 (protein, UniProt Q9NZD8 1-308, looked up)
# Maspardin: MGEIKVSPDYNWFRGTVPLKKIIVDDDDSKIWSLYDAGPRSIRCPLIFLPPVSGTADVFFRQILALTGWGYRVIALQYPVYWDHLEFCDGFRKLLDHLQLDKVHLFGASLGGFLAQKFAEYTHKSPRVHSLILCNSFSDTSIFNQTWTANSFWLMPAFMLKKIVLGNFSSGPVDPMMADAIDFMVDRLESLGQSELASRLTLNCQNSYVEPHKIRDIPVTIMDVFDQSALSTEAKEEMYKLYPNARRAHLKTGGNFPYLCRSAEVNLYVQIHLLQFHGTKYAAIDPSMVSAEELEVQKGSLGISQEEQ
# B4: TNIP2 (protein, UniProt Q8NFZ5 1-429, looked up)
# TNFAIP3-interacting protein 2: MSRDPGSGGWEEAPRAAAALCTLYHEAGQRLRRLQDQLAARDALIARLRARLAALEGDAAPSLVDALLEQVARFREQLRRQEGGAAEAQMRQEIERLTERLEEKEREMQQLLSQPQHEREKEVVLLRRSMAEGERARAASDVLCRSLANETHQLRRTLTATAHMCQHLAKCLDERQHAQRNVGERSPDQSEHTDGHTSVQSVIEKLQEENRLLKQKVTHVEDLNAKWQRYNASRDEYVRGLHAQLRGLQIPHEPELMRKEISRLNRQLEEKINDCAEVKQELAASRTARDAALERVQMLEQQILAYKDDFMSERADRERAQSRIQELEEKVASLLHQVSWRQDSREPDAGRIHAGSKTAKYLAADALELMVPGGWRPGTGSQQPEPPAEGGHPGAAQRGQGDLQCPHCLQCFSDEQGEELLRHVAECCQ
# B5: SORBS3 (protein, UniProt O60504 1-671, looked up)
# Vinexin: MQGPPRSLRAGLSLDDFIPGHLQSHIGSSSRGTRVPVIRNGGSNTLNFQFHDPAPRTVCNGGYTPRRDASQHPDPAWYQTWPGPGSKPSASTKIPASQHTQNWSATWTKDSKRRDKRWVKYEGIGPVDESGMPIAPRSSVDRPRDWYRRMFQQIHRKMPDLQLDWTFEEPPRDPRHLGAQQRPAHRPGPATSSSGRSWDHSEELPRSTFNYRPGAFSTVLQPSNQVLRRREKVDNVWTEESWNQFLQELETGQRPKKPLVDDPGEKPSQPIEVLLERELAELSAELDKDLRAIETRLPSPKSSPAPRRAPEQRPPAGPASAWSSSYPHAPYLGSARSLSPHKMADGGSPFLGRRDFVYPSSTRDPSASNGGGSPARREEKKRKAARLKFDFQAQSPKELTLQKGDIVYIHKEVDKNWLEGEHHGRLGIFPANYVEVLPADEIPKPIKPPTYQVLEYGEAVAQYTFKGDLEVELSFRKGEHICLIRKVNENWYEGRITGTGRQGIFPASYVQVSREPRLRLCDDGPQLPTSPRLTAAARSARHPSSPSALRSPADPIDLGGQTSPRRTGFSFPTQEPRPQTQNLGTPGPALSHSRGPSHPLDLGTSSPNTSQIHWTPYRAMYQYRPQNEDELELREGDRVDVMQQCDDGWFVGVSRRTQKFGTFPGNYVAPV
# B6: SIRT1 (protein, UniProt Q96EB6 2-747, looked up)
# NAD-dependent protein …: ADEAALALQPGGSPSAAGADREAASSPAGEPLRKRPRRDGPGLERSPGEPGGAAPEREVPAAARGCPGAAAAALWREAEAEAAAAGGEQEAQATAAAGEGDNGPGLQGPSREPPLADNLYDEDDDDEGEEEEEAAAAAIGYRDNLLFGDEIITNGFHSCESDEEDRASHASSSDWTPRPRIGPYTFVQQHLMIGTDPRTILKDLLPETIPPPELDDMTLWQIVINILSEPPKRKKRKDINTIEDAVKLLQECKKIIVLTGAGVSVSCGIPDFRSRDGIYARLAVDFPDLPDPQAMFDIEYFRKDPRPFFKFAKEIYPGQFQPSLCHKFIALSDKEGKLLRNYTQNIDTLEQVAGIQRIIQCHGSFATASCLICKYKVDCEAVRGDIFNQVVPRCPRCPADEPLAIMKPEIVFFGENLPEQFHRAMKYDKDEVDLLIVIGSSLKVRPVALIPSSIPHEVPQILINREPLPHLHFDVELLGDCDVIINELCHRLGGEYAKLCCNPVKLSEITEKPPRTQKELAYLSELPPTPLHVSEDSSSPERTSPPDSSVIVTLLDQAAKSNDDLDVSESKGCMEEKPQEVQTSRNVESIAEQMENPDLKNVGSSTGEKNERTSVAGTVRKCWPNRVAKEQISRRLDGNQYLFLPPNRYIFHGAEVYSDSEDDVLSSSSCGSNSDSGTCQSPSLEEPMEDESEIEEFYNGLEDEPDVPERAGGAGFGTDGDDQEAINEAISVKQEVTDMNYPSNKS
# B7: TOMM34 (protein, UniProt Q15785 1-309, looked up)
# Mitochondrial import receptor …: MAPKFPDSVEELRAAGNESFRNGQYAEASALYGRALRVLQAQGSSDPEEESVLYSNRAACHLKDGNCRDCIKDCTSALALVPFSIKPLLRRASAYEALEKYPMAYVDYKTVLQIDDNVTSAVEGINRMTRALMDSLGPEWRLKLPSIPLVPVSAQKRWNSLPSENHKEMAKSKSKETTATKNRVPSAGDVEKARVLKEEGNELVKKGNHKKAIEKYSESLLCSNLESATYSNRALCYLVLKQYTEAVKDCTEALKLDGKNVKAFYRRAQAHKALKDYKSSFADISNLLQIEPRNGPAQKLRQEVKQNLH
# B8: RNF123 (protein, UniProt Q5XPI4 2-1314, looked up)
# E3 ubiquitin-protein ligase …: ASKGAGMSFSRKSYRLTSDAEKSRVTGIVQEKLLNDYLNRIFSSSEHAPPAATSRKPLNFQNLPEHLDQLLQVDNEEEESQGQVEGRLGPSTVVLDHTGGFEGLLLVDDDLLGVIGHSNFGTIRSTTCVYKGKWLYEVLISSQGLMQIGWCTISCRFNQEEGVGDTHNSYAYDGNRVRKWNVTTTNYGKAWAAGDIVSCLIDLDDGTLSFCLNGVSLGTAFENLSRGLGMAYFPAISLSFKESVAFNFGSRPLRYPVAGYRPLQDPPSADLVRAQRLLGCFRAVLSVELDPVEGRLLDKESSKWRLRGQPTVLLTLAHIFHHFAPLLRKVYLVEAVLMSFLLGIVEKGTPTQAQSVVHQVLDLLWLFMEDYEVQDCLKQLMMSLLRLYRFSPIVPDLGLQIHYLRLTIAILRHEKSRKFLLSNVLFDVLRSVVFFYIKSPLRVEEAGLQELIPTTWWPHCSSREGKESTEMKEETAEERLRRRAYERGCQRLRKRIEVVEELQVQILKLLLDNKDDNGGEASRYIFLTKFRKFLQENASGRGNMPMLCPPEYMVCFLHRLISALRYYWDEYKASNPHASFSEEAYIPPQVFYNGKVDYFDLQRLGGLLSHLRKTLKDDLASKANIVIDPLELQSTAMDDLDEDEEPAPAMAQRPMQALAVGGPLPLPRPGWLSSPTLGRANRFLSTAAVSLMTPRRPLSTSEKVKVRTLSVEQRTREDIEGSHWNEGLLLGRPPEEPEQPLTENSLLEVLDGAVMMYNLSVHQQLGKMVGVSDDVNEYAMALRDTEDKLRRCPKRRKDILAELTKSQKVFSEKLDHLSRRLAWVHATVYSQEKMLDIYWLLRVCLRTIEHGDRTGSLFAFMPEFYLSVAINSYSALKNYFGPVHSMEELPGYEETLTRLAAILAKHFADARIVGTDIRDSLMQALASYVCYPHSLRAVERIPEEQRIAMVRNLLAPYEQRPWAQTNWILVRLWRGCGFGYRYTRLPHLLKTKLEDANLPSLQKPCPSTLLQQHMADLLQQGPDVAPSFLNSVLNQLNWAFSEFIGMIQEIQQAAERLERNFVDSRQLKVCATCFDLSVSLLRVLEMTITLVPEIFLDWTRPTSEMLLRRLAQLLNQVLNRVTAERNLFDRVVTLRLPGLESVDHYPILVAVTGILVQLLVRGPASEREQATSVLLADPCFQLRSICYLLGQPEPPAPGTALPAPDRKRFSLQSYADYISADELAQVEQMLAHLTSASAQAAAASLPTSEEDLCPICYAHPISAVFQPCGHKSCKACINQHLMNNKDCFFCKTTIVSVEDWEKGANTSTTSSAA
# Tested on: human HL60 cells
# Assay: SWATH-MS proteomics, differential protein representation, akirin2 KO vs WT HL60 cells
# Type: cell-based
# Conditions: akirin2 KO vs WT HL60 cells; sheet "Under-represented in KO"
# Outline: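 WT and akirin2 KO HL60 lysates (150 µg, n=3 biological replicates) were FASP trypsin-digested and desalted. A spectral library was built by IDA from 3 µg digests, then 5 µg per sample went to variable-window SWATH DIA over a 120-min 5–30% acetonitrile gradient. Identifications were accepted at 1% global FDR, with total-area-sum normalization.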
Molecule,Fold Change,Log (Fold Change)
B1,0.24,-0.6198

# Tested on: AKR2
# Assay: not given
# Set-up: key: A: Very high confidence in the interaction; B: High confidence in the interaction; D: Moderate confidence in the interaction
# Conditions: AKR2-interacting proteins (IPs), physical interactome; ref https://doi.org/10.3390/vaccines8010077; cited from earlier work
# Description: Supplement BSR-2021-1120_supp1.zip/BSR-2021-1120_suppST4.xlsx, sheet "BPs related to AKR2-IPs" | column: Predicted Biological Score (PBS)
row,Molecule,Predicted Biological Score (PBS)
1,B2,A
2,B3,A
3,B4,A
4,B5,A
5,B6,D
6,B7,A
7,B8,A
